Laboratory results reported in the RNAGym collection of RNA variant scans (doi:10.1073/pnas.2313332121).
Variants at the floor of the assay were thinned out.

B1: TPR 5TU (parent)
chain: GGAUCUUCUCGAUCUAACAAAAAAGACAAAUCUGCCACAAAGCUUGAGAGCAUCUUCGGAUGCAGAGGCGGCAGCCUUCGGUGGCGCGAUAGCGCCAACGUUCUCAACUAUGACACGCAAAACGCGUGCUCCGUUGAAUGGAGUUUAUCAUG

Variants of: B1
Experiment: polymerase ribozyme fitness, log enrichment relative to wild type (log ratio); higher = more active; in vitro selection for triplet polymerase activity
Method in brief: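 To select mutant libraries of each subunit of a heterodimeric triplet polymerase ribozyme, built by PCR and transcribed, each was annealed with a biotinylated primer, partner subunit and triplets, then incubated frozen at −7 °C. Extended constructs were gel-excised, captured on streptavidin beads and amplified by RT-PCR, in one round carried out in triplicate. Illumina sequencing of input and output libraries kept genotypes with ≥10 input reads and ≥1 read per output. Fitness is the base-2 logarithm of genotype enrichment relative to wild-type enrichment, from inverse-variance-weighted replicate averages.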

| Variant | polymerase ribozyme fitness (log ratio) |
| --- | --- |
| GGAUCUUCUCGAUCUAACAAAAAAGACAAAUCAGCCACAAAGCUUGAGAGCAUCUUCGGAUGCAGAGGCGGCAGCCUUCGGUGACGCGAUAGCGCCAACGUUCUCAACUAUGACACGCAAAACGCGUGCUCCGUUGAAUGGAGUUUAUCAUG | -3.81 |
| GGAUCUUCUCGAUCUAACAAAAAAGACAAAUCGGCCACAAAGCUUGUGGGCAUCUUCGGAUGCAGAGGCGGCAGAUUUCGGUGGCGCGAUUGGGCCAUCGUUCUCAACUAUGAAACGCAAAACGCGUGCUCCGUUCAAUGGAGUUUAUCAUG | ≤ -4.2 |
| GGAUCUUCUCGAUCUAACAAAAAAGACAAAUCCGCCACAAAGCUUGAGAGCAUCUUCGGAUGCAGAGGCGGCAGCCUUCGGUGGCGCGAUUGCGCCAACGUUCUCAACUAUGACACGCAAAACGCGUGCUCCGUUGAAUGGAGUUUAUCAUG | -3.67 |
| GGAUCUUCUCGAUCUAACAAAAAAGACAAAUCCGCCAGAAAGCUUGAGAGCAUCUUCGGAUGCAGAGGCGGCAGCCUUCGGUGGCGCGAUAGGGCCAACGUUCUCAACUAUGACACGCAAAACGCGUGCUCCGUUGGAUGCAGUUUAUCAUG | ≤ -4.2 |
| GGAUCUUCUCGAUCUAACAAAAAAGACAAAUCGGCCACAAAGCUUGAGAGCAUCUUCGGAUGCAGAGGCGGCAGCCUUCGGUGGCGCGAUAGCGCCAUCGUUCUCAACUAUGACACGCAAAACCCGUGCUCCGUUGAAUGGAGUUUAUCAUG | -3.27 |
| GGAUCUUCUCGAUCUAACAAAAAAGACAAAUCAGCCACAAAGCUUGAGAGCAUCUUCGGAUGCAGAGGCGGCAGCCUUCGGUGGCGCGAUAGCGCCAACGUUCUUAACUAUGACACGCAAAACGCGUGCUCCGUUGAAUGGAGUUUAUCAUG | -3.8 |
| GGAUCUUCUCGAUCUAACAAAAAAGACAAAUCAGCCACAAAGCUUGAGAGCAUCUUCGGAUGCAGAGGCGGCUGCCUUCGGUGGUGCGAUAGCGCCAACGUUCUCAACUAUGACACGCAAAACGCGGGCUCCGUUGAAUGGAGUUUAUCAUG | -2.45 |
| GGAUCUUCUCGAUCUAACAAAAAAGACAAAUCGGCCACAAAGCUUGGGAGCAUCUUCGGAUGCAGAGGCGGCAGCCUUCGAUGGCGCGAUAGCGCCAACGUUCUCAACUAUGACACGCAAAACGCGUGCUCCGUUGAAUGGAGUUUAUCAUG | -4 |
| GGAUCUUCUCGAUCUAACAAAAAAGACAAAUCAGCCACAAAGCUUUAGAGCAUCUUCGGAUGCAGAGGCGGCAGCCUUCGGUGGCGCGAUAGCGCCAACGUUCUCAGCUAUGACACGCAAAACGCGUGCUCCGUUGAAUGGAGUUUAUCAUG | -4.18 |
| GGAUCUUCUCGAUCUAACAAAAAAGACAAAUCAGCCACAAAGCUUGAGAGCAUCGUCGGAUGCAGAGGCGGCGGCCUUCGGUUGCUCGUUAGCGCCAACGUUCUCAACUAUGACACGCAAAACGCGUGCUCCGUUAAAUGGAGUUUAUCAUG | ≤ -4.2 |
| GGAUCUUCUCGAUCUAACAAAAAAGACAAAUCAGCCACAAAGCUUGAGAGCAUCUACGGAUGCAGAGGCGGCAGCCUUCGGUGGCGCGAUAGAACCAACGUUCUCAACUCUGACACGCAGAACGCGUGCUCCGGUGAAUGGAGUGUAUCAUG | ≤ -4.2 |
| GGAUCUUCUCGAUCUAACAAAAAAGACAAAUCCGCCACAAAGCUUGAGAGCAUCUUCGGAUGCAGAGGCGGCAGCCUUCGGAGGCGCGAUAGCGCCAACGUUCUCAACUAUGACACGCAAAACGCGUGCUCCGUUGAAUGGAGUUUAUCAUG | -2.77 |
| GGAUCUUCUCGAUCUAACAAAAAAGACAAAUCCGCCACAAAGCUUGAGAGCAUAAUCGGAUGCAGAGGCGGCAGCCUUCGGUAGCGCGAUAGCGCAAACGUUCUCAACUAUGACACGCAAAACGGCGGCUCCGUUGAAUGGAGUUUAUCAUG | ≤ -4.2 |
| GGAUCUUCUCGAUCUAACAAAAAAGACAAAUCAGCCACAAAGCUUGAGAGCGUCUUCGGAUGCAGAGGCGGCAGCCUUCGGUGGAGCGAUAGCGACAACGUUCUCAACUAUGACACGCAAAACGCGUGCUCCGUUGAAUGGAGUUUACCAAG | ≤ -4.2 |
| GGAUCUUCUCGAUCUAACAAAAAAGACAAAUCAGCCACAAAGCUUGAGAGCAUCUUCGGAUGUAGAGGCGGCAGCCUUCGGUGGCGCGAUAGAGCCGACGUUCUCAACUAUGACACGCAAAACGCCUGCUCCGUUGAAUGGAGUUUAUCAUG | ≤ -4.2 |
| GGAUCUUCUCGAUCUAACAAAAAAGACAAAUCGGCCACAAUGCUUGAGAGAAUCUUCGGAUGCAGACGCGGUAGCCUUCGGUGGCGCGAUAGCGCCAACGUUCUCAACUAUGACACGCAAAACGCGUGCUCCGUUGAAUGGAGUUUAUCAUG | -3.95 |
| GGAUCUUCUCGAUCUAACAAAAAAGACAAAUCAGCCACAAAGCUUGAGAGCAUCUUCGGAUGCAGAGGCGGCAGCCUUCCGUGGCGCGAUAGCGCCAAUGUUCUCAACUAUGACACGCAAAACGCGUGCUUCGUUGAAUGGAGUUUAUCAUG | ≤ -4.2 |
| GGAUCUUCUCGAUCUAACAAAAAAGACAAAUCGGCAACAAAGCUUGAGAACCUCUUCGGAUGCAGAGGCGGCAGCCUUCGGUGACGCGAUAGCGCCCACGUUCUCAACUAUGACACGCAAAACGCGUGCUCCGUUGACUGGAGUUUAUCAUG | -3.92 |
| GGAUCUUCUCGAUCUAACAAAAAAGACAAAUCCGCCACAAAGGUUGAGACCAUCUUCAGAUGCAGAGGCGGCAGCCUUCGGUGGCACGAUAGCGCCAACGUUCUAAACUAUGACACGCAAAACGCGUGCUCCGUUGGAUGGAGUUUAUCAUG | ≤ -4.2 |

| Variant | polymerase ribozyme fitness (log ratio) |
| --- | --- |
| GGAUCUUCUCGAUCUAACAAAAAAGACAAAUCCGCCACAAAGCUUGAGAGCAUCUUCGGAUGCAGAGGCGGCAGCCUUCGGUGGCGCGAUAGAGCCAAGGUUCUCAACUAUGACACGCAAAACGCGUUCUCCGUUGAAUGGAGUUUAUCAUG | ≤ -4.2 |
| GGAUCUUCUCGAUCUAACAAAAAAGACAAAUCAGCCACAAAGCUUGAGAGCAUCUUCGGAUGCAGAGGCGGCAGCCUUCGGUGGCGCGAUAGCGCCAACGUUCUCAACUAUGACACGCAUAACGCGUGCUCCGUUGAAUGGAGUUUAUCAUG | -4.01 |
| GGAUCUUCUCGAUCUAACAAAAAAGACAAAUCAGCCACAAAGCUUGAGAGCAUCUUCGGAUGCAGAGGCGGCAGCCUUCGGUGGCGCGAUAGCGCCAGCGUUCUCAACUAUGACACGCAAAACCCGUGCUCCGUUGAAUGGAGUUUAUCAUG | ≤ -4.2 |
| GGAUCUUCUCGAUCUAACAAAAAAGACAAAUCCGCCACAAAGCUAGAGAGCAUCUUCGGAUGCAGAGGCGGCAGCCUUCGGUGGGGCGAUAGCGCCAACGUUCUCAACUAUGACACGCAAAACGCGUGCUCCUUUGAAUGGAGUUUAUCAUG | ≤ -4.2 |
| GGAUCUUCUCGAUCUAACAAAAAAGACAAAUCCGCCACAAAGCUUGAGAGCAGCUUCGGAUGCAGAGGCGGCAGCCAUCGGUGGCGCGAUAGCGCCAACGUUCUCAACUAUGACACGCAAAACGCGUGCUCCGUUGAAUGGACUUUAUCAUG | ≤ -4.2 |
| GGAUCUUCUCGAUCUAACAAAAAAGACAAAUCAGCCACAUAGCUUGAGAGCAUCUUUGGAUGCAGAGGCGGCAGCCUUCGGUGGCUCGAUAGCGCCAACGUUCUCAACUAUAACACGCAAAACGCGUGCUCCGUUGAAUGGAGUUUAUCAUG | ≤ -4.2 |
| GGAUCUUCUCGAUCUAACAAAAAAGACAAAUCCGCCCCAAAGCUUGAGAGCAUCUUCGGAUGCUGAGGCGGCAGCCUUCGGUGGCGCGAUAGCGCCAACGUUCUCAACUAUGACACGCAAAACGCGUGCUCCGUUGAAUGGAGUUUAUCAUG | ≤ -4.2 |
| GGAUCUUCUCGAUCUAACAAAAAAGACAAAUCAGCCACAAAGCUUGAGAGUAUCUUGGGAUGCAGAGGCGGCAGGCUUCGGUGGCGCGAUAGUGCCAACGUUCUCAACUAUGACACGCAAAACGAGUGCUCCGUUGAAUUGAGUUUAUCAUG | ≤ -4.2 |
| GGAUCUUCUCGAUCUAACAAAAAAGACAAAUCCGCCACAAAGCUUGGGAGCAUCUUCGGAUGCAGAGGCGGCAGCCUUCGGUGGCGCGAUAGUGCCAACGUUAUCAACUAUGACACGCAAAACGCGUGCUCUGUUGCAUGGAGUUUAUCAUG | ≤ -4.2 |
| GGAUCUUCUCGAUCUAACAAAAAAGACAAAUCCGCCACAAAGCUUGAGAGCAUCUUCGGAUGCAGAGGCGGCAGCCUUCGGUGGCGCGAUAGCGCCAACGUUCUCAACUAUGACACGCAAAACGCGUGCUCCGUUGAAUGAAGUUUAUCAUG | -2.97 |
| GGAUCUUCUCGAUCUAACAAAAAAGACAAAUCCGCCACAAAGCUUGAGAGCAUCUUCGGAUGCAGAGGCGGCAGCCUUCGGUGGCGCGAUAGCGCCAACGUUCUCAACUAUGACACGCAAAACGAGUGCUCCGUUGAAUGGAGUUUAUCAUG | -3.35 |
| GGAUCUUCUCGAUCUAACAAAAAAGACAAAUCCGCCACAAAGCUUGAGAGCAUCUUCGGAUGCAGAGGCGGCAGCCUUCGGUGGCGCGAUAGCGCCAACGUUCUGAACUAUGACACGCAAAACGCGUGCUCCGUUGAAUGGAGUUUAUCAUG | -4.2 |
| GGAUCUUCUCGAUCUAACAAAAAAGACAAAUCGGCUACAAAGCUUGAGAGCAUCUUCGGUUGCAGAGGCGGCAGCCUUCGGUGGCGUGAUGGCGCCAACGUUCUCAAAAAUGACACGCAAAACGCGUGCUCCGUUGAAUGGAGUUUAUCAUG | ≤ -4.2 |
| GGAUCUUCUCGAUCUAACAAAAAAGACAAAUCAGCCACUAAGCUUGAGAGCAUUUUCGGAUGCAGAGGCGGCAGCCUUCGGUGGCGCGAUAACGCGAACGUUCUCUACUAUGACACGCAAAACGCGUGCUCCGUUGGCUGGAGUUUAUCAUG | ≤ -4.2 |
| GGAUCUUCUCGAUCUAACAAAAAAGACAAAUCCGCCACAAAGCUUGAGAGCAUCUUCGGAUGCAGAGGCGGCAGCCUUCGGUGGCGAGAUAGCGCCAACGUUCUCAACUAUGACACGCAAAACGCGUGCUCCGUUGAAUGGAGUUUAUCAUG | -3.95 |
| GGAUCUUCUCGAUCUAACAAAAAAGACAAAUCAGCCACAAAGCUUGAGAGCAUCUUCGGAUGCAGAGGCGUCAGCCUUGGGUGGCGGGAUAGCGGCAACGUUCUCAACUAUGACACGCAAAACGCGUGCUCCGUUGAAUGGAGUUUAUCAUG | ≤ -4.2 |
| GGAUCUUCUCGAUCUAACAAAAAAGACAAAUCCGCCACAAAGCUUGAGAGCAUCUUCGCAUGCGGAGGCGGCAGCCUUCGGUGGCGCGAUAGCGCGAACGUUCUCAACUAUGACACGCAAAACGCGUGCCCCGUUGAAUGGAGUUUAUCAUG | ≤ -4.2 |
| GGAUCUUCUCGAUCUAACAAAAAAGACAAAUCCGCCACAAAGCUUGAGAGCAUCUUUGGAAGCAGAGGCGGCAGCCUUCGGUGACGCGAUAGCGCCAACGGUCUCAACUAUGACACGCAAAACGCGUGCUCCGUUGAAUUGAGUAUAUCAUG | -4 |
| GGAUCUUCUCGAUCUAACAAAAAAGACAAAUCCGCCACAAAACUUGAGAGCAUCUUCGGAUGCAGAGGCGGCAGCCUUCGGUGGCGCGAUAGUGCCAACGUUCUCAAUUAUGACACGCAAAACGCGUGCUCCGUUGAAUGGAGUUUAUCAUG | ≤ -4.2 |
